Ends that are not written are not given here. * marks the point of attachment. Biotin = O=C1N[C@H]2[C@H](CS[C@H]2CCCCC(=O)*)N1

The target of test [1] is T1, full length recombinant cytokeratin 18 protein (rCK18) (human, UniProt P05783 1-430).
T1 construct: The exact recombinant construct, including any tags, is not described; also called recombinant full length CK18 protein; full-length (untreated) CK18
T1 sequence: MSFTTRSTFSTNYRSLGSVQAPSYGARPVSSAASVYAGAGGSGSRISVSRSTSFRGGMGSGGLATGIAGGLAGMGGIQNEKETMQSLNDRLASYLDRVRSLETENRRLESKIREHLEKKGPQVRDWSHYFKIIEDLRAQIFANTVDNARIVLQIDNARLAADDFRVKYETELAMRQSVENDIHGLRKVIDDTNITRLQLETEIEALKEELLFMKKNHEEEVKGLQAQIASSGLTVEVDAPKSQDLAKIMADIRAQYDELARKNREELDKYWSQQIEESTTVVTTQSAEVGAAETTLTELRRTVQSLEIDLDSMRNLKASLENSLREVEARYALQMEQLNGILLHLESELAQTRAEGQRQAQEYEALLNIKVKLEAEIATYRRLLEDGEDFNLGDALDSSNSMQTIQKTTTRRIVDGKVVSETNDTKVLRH
In words: Western blot. As for the experimental part: (§1) FIG. 4 is a photographic reproduction of a Western Blot Analysis using the mAb 3C2 (Lane 1, marker proteins; Lane 2, blank; Lane 3, 1 μg recombinant full length CK18 protein (rCK18); Lane 4, 12 μL of SK-BR3 apoptotic cell supernatant; Lane 5, 12 μL of SK-BR3 cell supernatant). Proteins were run in a 14% Tris/Glycine gel. The concentrations for the test material were 1 μg of rCK18 and 12 μL of SK-BR-3 apoptotic supernatant and SK-BR-3 Cell Lysate. The proteins were run at 150 V constant until the dye front reached the end of the gel. The proteins were then transferred to nitrocellulose. The nitrocellulose was blocked and probed with the 3C2 mAb at 1 μg/mL for 60 minutes. The membrane was washed three times and probed with a goat anti-mouse IgG ALK for 30 minutes. The membrane was washed three times and developed with using a WesternBreeze® kit from Invitrogen™ (Cat # WB7104).

For test [2], the target named is T2, human CK18 protein fragment M1-D238 from apoptotic SK-BR3 cells (human, UniProt P05783 1-238).
T2 construct: Endogenous fragment in the supernatant or lysate of SK-BR-3 cells induced to become apoptotic; also called fragment B; caspase-cleaved CK18 fragment
T2 sequence: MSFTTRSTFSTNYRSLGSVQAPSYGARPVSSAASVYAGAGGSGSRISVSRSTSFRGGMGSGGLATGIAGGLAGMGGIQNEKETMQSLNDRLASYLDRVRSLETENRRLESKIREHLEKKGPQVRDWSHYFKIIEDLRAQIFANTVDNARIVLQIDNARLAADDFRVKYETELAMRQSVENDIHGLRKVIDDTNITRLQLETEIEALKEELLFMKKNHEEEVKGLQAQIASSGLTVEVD
In words: Western blot. As for the experimental part: as §1

The target in test [3] is T3, full length CK18 from a cell extract of SK-BR-3 cells (human, UniProt P05783 1-430).
T3 construct: Endogenous CK18 of the human breast cancer cell line SK-BR-3, seen on a Western blot; also called SK-BR3 cell supernatant (lane 5)
T3 sequence: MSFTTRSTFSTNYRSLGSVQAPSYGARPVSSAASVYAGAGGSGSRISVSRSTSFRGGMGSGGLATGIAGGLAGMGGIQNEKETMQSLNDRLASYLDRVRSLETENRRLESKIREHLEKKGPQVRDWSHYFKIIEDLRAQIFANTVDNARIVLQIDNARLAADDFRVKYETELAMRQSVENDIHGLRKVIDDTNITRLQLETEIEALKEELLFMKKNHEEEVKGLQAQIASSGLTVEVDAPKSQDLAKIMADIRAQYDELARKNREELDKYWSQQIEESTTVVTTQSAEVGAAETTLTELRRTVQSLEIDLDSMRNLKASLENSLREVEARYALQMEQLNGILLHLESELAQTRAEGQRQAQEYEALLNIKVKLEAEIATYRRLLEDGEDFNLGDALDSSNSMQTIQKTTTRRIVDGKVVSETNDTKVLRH
In words: Western blot. As for the experimental part: as §1

Test [4] has as its target T4, biotin conjugated CK18 peptide ^229ASSGLTVEVD (A229-D238) (human).
T4 construct: also called peptide P1
T4 peptide: Biotin-ASSGLTVEVD
The test can be described thus: immunoassay on biotin peptides on NeutrAvidin-coated 96-well plate. The procedure:
(§2) The specificity of monoclonal antibody 3C2 was also assessed in an immunoassay against the peptides ²²⁹[…] (SEQ ID NO:1), ²²⁹[…] (SEQ ID NO:12) and ³⁸⁸[…] (SEQ ID NO:13) (each conjugated with biotin at their amino-terminus), which were added to a 96-well microplate coated with NeutrAvidin® by Invitrogen™. Human cytokeratin 18 protein fragment A239-D397 was also produced by the action of caspase 3 during cellular apoptosis and ends in the sequence ³⁹⁴DALD (SEQ ID NO:9). These peptides were incubated with mAb 3C2, M30 antibody (Enzo Life Sciences®, ALX-804-590) or other unrelated mAbs.

In test [5] the target is T5, biotin conjugated CK18 peptide ^229ASSGLTVEV (A229-V237) (human).
T5 peptide: Biotin-ASSGLTVEV
Described as above. As for the experimental part:
as §2

Test [6] addresses T6, biotin conjugated CK18 peptide ^388EDFNLGDALD (human).
T6 peptide: Biotin-EDFNLGDALD
The description is as above. As for the experimental part:
as §2

Test [7] deals with T7, recombinant human CK18 protein fragment B (rCK18fB) (human, UniProt P05783 1-238).
T7 construct: also called recombinant CK-18 fragment B protein
T7 sequence: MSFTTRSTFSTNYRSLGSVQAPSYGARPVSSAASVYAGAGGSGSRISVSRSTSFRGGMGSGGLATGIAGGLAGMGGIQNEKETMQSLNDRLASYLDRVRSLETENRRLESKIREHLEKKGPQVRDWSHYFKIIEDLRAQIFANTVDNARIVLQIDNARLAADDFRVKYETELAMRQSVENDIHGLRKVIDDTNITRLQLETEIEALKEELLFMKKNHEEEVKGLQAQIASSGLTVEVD
The test can be described thus: sandwich ECL assay, capture biotin-3C2 on streptavidin beads, detector TAG-C-04, in normal human serum. As for the experimental part:
A recombinant human CK18 protein fragment B (rCK18fB) was prepared using standard procedures. An immunoassay consisted of incubating 50 μL rCK18fB (0, 206, 617, 1852, 5557, 16667, 50,000 and 100,000 U/L) spiked into normal human serum with 50 μL of reaction mix consisting of biotinylated mAb 3C2/streptavidin coated paramagnetic beads and anti-CK18 TAG labeled antibody C-04 for 60 minutes at room temperature with shaking. The bead complex was washed twice, suspended in buffer and read on an ECL analyzer. The results shown in FIG. 6, a representative standard curve, indicate rCK18fB is detectable over a range of 0-100,000 U/L (1 U/L=1000 pg=0.037 pM).

For test [8], the target named is T8, biotin conjugated CK18 peptide ^240PKSQDLAKI (human, also: biotin conjugated).
T8 peptide: PKSQDLAKI
The test can be described thus: ECL assay, hybridoma supernatant on biotin peptide on streptavidin beads. The source says: (§3) Caspases 3 and 6 generated three CK18 protein fragments having the sequences M1-D238 (SEQ ID NO:4), A239-D397 and 5398-H430. A monoclonal antibody specific for the carboxy terminus of human caspase-cleaved cytokeratin CK18 protein fragment having amino acids M1-D238 (SEQ ID NO:4) was generated by immunizing mice with a short peptide sequence of ²²⁹[…] (SEQ ID NO:1) (designated as peptide P1 for the Examples). Mouse sera were screened for a positive response to peptide P1. Splenocytes from mice with a positive response were fused with myeloma cells and cell culture fluid from the resulting hybridomas screened against peptide P1. Supernatant from hybridoma cells producing antibody with a positive response to peptide P1 were further screened by an electrochemiluminescence (ECL) assay against biotin conjugated peptides ²³⁹[…] (SEQ ID NO:10), ²⁴⁰[…] (SEQ ID NO:11), ²²⁹[…] (SEQ ID NO:1) and ²²⁹[…] (SEQ ID NO:12), which were each bound to streptavidin coated paramagnetic beads. Peptides ²²⁹[…] (SEQ ID NO:1) and ²²⁹[…] (SEQ ID NO:12) represent the amino acid sequences A229-D238 and A229-V237 of cytokeratin 18 protein while peptides ²³⁹[…] (SEQ ID NO:10) and ²⁴⁰[…] (SEQ ID NO:11) represent the amino acid sequences A239-1248 and K240-1248 of cytokeratin 18.

The target of test [9] is T9, biotin conjugated CK18 peptide ^239APKSQDLAKI (A239-I248) (human, also: biotin conjugated).
T9 peptide: APKSQDLAKI
The test is described as above.
Text: as §3

B1: monoclonal antibody 3C2 (antibody, V domains shown)
VH: DVQLVESGGGLVQPGGSRKLSCAASGFTFSSFGMHWVRQAPEKGLEWVAYINGGSTIIYYADTVKGRFTVSRDNPKNTLFLQMTSLRSDDTAMYFCVRRTPTAAGGAMDYWGQGTSVTVSS
VL: NIMVTQSPSSLAVSAGEKVTMTCKSSQSLFYSSNQKNYLAWFQQKPGQSPKLLIYWASTRESGVADRFTGSGYGTDFTLTISSVQAEDLAVYYCQQYLSSWTFGGGTKVEIK
notes: Mouse hybridoma monoclonal antibody, detected with goat anti-mouse IgG; also called mAb 3C2; anti-VEVD mAb
As for B1, the binding result in [1] is given as “no binding (tested: 3C2 mAb at 1 µg/mL; 1 µg of rCK18)”; in [2] it was “binds”; in [3], “no binding”; in [4] it was “binds”; in test [5], “no binding”; in test [6] it was “no binding”. The binding result was “binds” in test [7], “no binding” in [8] and “no binding” in test [9].

The record behind these values is patent US20170192014A1 (PDL BIOPHARMA, published 2017).
